According to the supplement of paper PMC9170038:

Test system: MS2 coat protein
Experiment: apparent KD of MS2 coat protein; designed switch direction (-1 OFF switch, 1 ON switch): -1; higher = weaker reporter binding
Summary of the method: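 Designed RNA switches sharing common flanks were transcribed on Illumina chips by stalled E. coli RNA polymerase. They were titrated with SNAP-549-labelled MS2 coat protein, from 0.7 or 1.5 nM doubling to 3 µM, in Tris-HCl pH 7.5 buffer with KCl, MgCl2, BSA, DTT, tRNA and Tween-20. Titrations ran without input, with 200 uM small-molecule ligand, or with an oligonucleotide input. The apparent KD of each design is the median over its clusters, after curve-fitting of normalised cluster fluorescence.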

[1] = input ligand: microRNA oligo, concentration not stated
[2] = Eterna round: R95, input ligand: FMN 200 uM
[3] = Eterna round: R95, input ligand: microRNA oligo, concentration not stated
[4] = Eterna round: R95, input ligand: none

Row | Sequence | apparent KD of MS2 coat protein (input ligand: FMN 200 uM) [nM] | apparent KD of MS2 coat protein (input ligand: none) [nM] | apparent KD of MS2 coat protein [1] [nM] | apparent KD of MS2 coat protein [2] [nM] | apparent KD of MS2 coat protein [3] [nM] | apparent KD of MS2 coat protein [4] [nM]
1 | GUAAAACAUGAGGAUCACCCAUGUCAGGAUAUACGAAUCCACCCUAACUGCGUGGAUCGUAGAAGGGACAUAGG [Exclusion 1 (MOD5.1 Esqu)] (Eterna round: R97, puzzle: Exclusion 1) | 17.9 | 44.7 | – | – | – | –
2 | GUAAAACAUGUAGGAUAUGCGUGGCAAAGCUAUGCAGAAGGACAUGAGGAUCACCCAUGUUAAAGCGUCUGAGUACAGAUGCAA [Mat - Exclusion NG 1 - Mod of JL - D96] (Eterna round: R96, puzzle: Exclusion NG 1) | 445 | 36 | 27.4 | – | – | –
3 | GUAAACGAAGAGGAUAUAUGAUAUCAAAGCUUCAUAGAAGGCUUCACAUGAGGAUCACCCAUGUGAUCUUCAAA [Mat - Exclusion 6 - JL Mod - D26] (Eterna round: R97, puzzle: Exclusion 6) | 203 | 38.1 | – | – | – | –
4 | GUAAACGCAGAGGAUAUAUCAGAUCAAAGCUGCAUAGAAGGCUGCACAUGAGGAUCACCCAUGUGGUCUUUAAU [Mat - Exclusion 6 - JL Mod - D3] (Eterna round: R97, puzzle: Exclusion 6) | 203 | 21 | – | – | – | –
5 | GUAAAGAGAGGAUAUACAUGAGGAUCACCCAUGUACGACCAGCAGAAAUGGUCCUCGAGUAGAAGGCUCGGGUA [Araris] (Eterna round: R97, puzzle: Exclusion 3) | 239 | 51.7 | – | – | – | –
6 | GUAAAGGUAGGAUAUACGAAGAAAAAGGGUAGAAUAAUAACACAUGAGGAUCACCCAUGUAGAAGGACCAAAUG [Mat - Exclusion 2 - Mod of my Tesla design - D5] (puzzle: Exclusion 2) | – | – | – | 65.7 | 26.5 | 32.4
7 | GUAAAGUGAGGAUAUGGUAAAGUAAGUAUGUAGUAAGUAAUCCAGAAGGCACAUGAGGAUCACCCAUGUAAAUG [Mat - Exclusion 4 - D99] (puzzle: Exclusion 4) | – | – | – | – | 28.8 | –
8 | GUAAAGUGAGGAUAUGGUAAAUUAAUUAUUUAGUAAUUAAUCCAGAAGGCACAUGAGGAUCACCCAUGUAAAUG [Mat - Exclusion 4 - D95] (puzzle: Exclusion 4) | – | – | – | – | 32.1 | –
9 | GUAACAUUAAAGGCUCGUGACAUGAGGAUCACCCAUGUAUGGACCGUUCCACUUACCGACAAGCUGUGAUCGUCCUU [Eternabot (L2) Solution 22] (Eterna round: R97, puzzle: Sensor, turn-off variant 1) | 40.8 | 42 | – | – | – | –
10 | GUAAUGAUUGUGAGGAUAUUUCAUAGAUAGAUAUUAGAGAAGGUACAUGAGGAUCACCCAUGUGUGAUCAUACA [Brourd's EX4 #73] (Eterna round: R97, puzzle: Brourd's mod of Exclusion 4) | 672 | 1050 | – | – | – | –
11 | GUAAUGUCCGAGGAUAUCCUUCUAAAUAUAUAUGGAGAAGGCGGUACAUGAGGAUCACCCAUGUCCAAAAUGGG [Parada] (Eterna round: R97, puzzle: Exclusion 6) | 229 | 1680 | – | – | – | –
12 | GUACUAAGUGUGAGGAUAUCACAGGACGUUCACUAUGAGAAGGUACAUGAGGAUCACCCAUGUAUCGUGGGUCA [Eternabot (Original) Solution 7] (Eterna round: R97, puzzle: Brourd's mod of Exclusion 4) | 20.3 | 17.7 | – | – | – | –
13 | GUACUACAUGAGGAUCACCCAUGUCAGGAUAUGGGAAUUUCAUCAAAAGAUGAAAUUCUUAGAAGGGACAGUAC [Omei Ex1 A5] (Eterna round: R97, puzzle: Exclusion 1) | 24.6 | 22.2 | – | – | – | –
14 | GUACUGAAGCUUUGCUUUAAUCGUACAUGAGGAUCACCCAUGUAGGAUAUGGUAGGCAAAGCUUACCAGAAGGACAGAGUGAUC [Mat - Exclusion NG 3 - Mod of JL - D67] (Eterna round: R96, puzzle: Exclusion NG 3) | 103 | 93.1 | 92.1 | – | – | –
15 | GUACUGAAGCUUUGCUUUAGUCGUACAUGAGGAUCACCCAUGUAGGAUAUGGUAGGCUUUGCUUACUAGAAGGACAGAGUGAUC [JL EXNG3 1.26] (Eterna round: R96, puzzle: Exclusion NG 3) | 33.1 | 75.7 | 139 | – | – | –
16 | GUACUGACAGGAUAUACAUGAGGAUCACCCAUGUGCCCUUAAAGAUGCAAAGCAUCUAGUAGAAGGGUCUGUAC [Omei Ex3 Model Bachelor's Dilema v23] (Eterna round: R97, puzzle: Exclusion 3) | 66.1 | 33.4 | – | – | – | –
17 | GUAGAGUAAGGAUAUGAUGAAUAGGAUAGAAUGGUUAGAAAUCAGAAGGUACAUGAGGAUCACCCAUGUAAUGU [Excluse me!!!! 13 - Jieux - Exclusion 4] (puzzle: Exclusion 4) | – | – | – | – | 21.4 | –

Row | Sequence | apparent KD of MS2 coat protein (input ligand: FMN 200 uM) [nM] | apparent KD of MS2 coat protein (input ligand: none) [nM] | apparent KD of MS2 coat protein [1] [nM] | apparent KD of MS2 coat protein [2] [nM] | apparent KD of MS2 coat protein [3] [nM] | apparent KD of MS2 coat protein [4] [nM]
18 | GUAGAGUAAGGAUAUGGUGAAUAGGAUAGAAUGGUUAGAAACCAGAAGGUACAUGAGGAUCACCCAUGUAAUGU [Excluse me!!!! 16 - Jieux - Exclusion 4] (puzzle: Exclusion 4) | – | – | – | – | 20.2 | –
19 | GUAGAGUAAGGAUAUGUAGAAUAGGAUAGAAUGGUUAGAAUGCAGAAGGUACAUGAGGAUCACCCAUGUAAUGU [Excluse me!!!! 5 - Jieux - Exclusion 4] (puzzle: Exclusion 4) | – | – | – | – | 21.2 | –
20 | GUAGAGUCAGGAUAUACAAGAUCGAAAGAUCGGCGGUCCAUACAUGAGGAUCACCCAUGUAGAAGGGACUCUAC [Eli x2 4.005] (Eterna round: R97, puzzle: Exclusion 2) | 619 | 30.2 | – | – | – | –
21 | GUAGAGUCAGGAUAUACGAGAUCGAAAGAUCAAAGAUUCCUACAUGAGGAUCACCCAUGUAGAAGGGACUCUAC [Eli x2 4.123] (Eterna round: R97, puzzle: Exclusion 2) | 16 | 15.6 | – | – | – | –
22 | GUAGAUCAGGCUUUCAUUGACAUGAGGAUCACCCAUGUUUUGAAAGGGUGAGAGAGGUGCUUCAUAUUCAGCUCUGA [JR_Sensorv2_tov_Sub1218] (Eterna round: R96, puzzle: Sensor v2, turn-off variant) | 76.4 | 61.1 | 55.3 | – | – | –
23 | GUAGCCCGAGGAUAUACAUGAGGAUCACCCAUGUAUCGUUCGAGAAGACUCGGCCCGUGUAGAAGGCGGUAUCC [Eternabot (L1) Solution 22] (Eterna round: R97, puzzle: Exclusion 3) | 25.3 | 23.1 | – | – | – | –
24 | GUAGCUGAUAAGGAUAUUGUACCUAACCUGCGUCGAGAAGGUGUCACAUGAGGAUCACCCAUGUUUAGGCAAAG [Eternabot (L2) Solution 22] (Eterna round: R97, puzzle: Exclusion 6) | 24.4 | 29.5 | – | – | – | –
25 | GUAGGGUCAGGAUAUACGCAGACGGUUUCGUCGGGUUAUCUACAUGAGGAUCACCCAUGUAGAAGGGAUCAUAC [Eternabot (L1) Solution 53] (Eterna round: R97, puzzle: Exclusion 2) | 53.4 | 15.8 | – | – | – | –
26 | GUAGGGUCAGGAUAUACGGGCGGGAGGAUGUAGUGGAGUUGGUAGAAGGGACAUGAGGAUCACCCAUGUGAGAA [JR_Exclu4_Sub053] (puzzle: Exclusion 4) | – | – | – | – | 27.3 | –
27 | GUAUAACAUGUAGGAUAUGCGUGGCGAAGCUAUGCAGAAGGACAUGAGGAUCACCCAUGUUUUUGCGUCUGCGUACAGAUGCUA [JL ENG1 1.40] (Eterna round: R96, puzzle: Exclusion NG 1) | 107 | 21.5 | 15.2 | – | – | –
28 | GUAUAACUACACGGGCUCAACAUGAGGAUCACCCAUGUAAUAUACGCAAGCUUUUUGCUUGUCUUAUCUGUCCGUGA [Aanrius] (puzzle: Sensor v3, turn-off variant 1) | – | – | – | 12.3 | 9.56 | 11.4
29 | GUAUACAAGCAAAGAUCCCACAUGAGGAUCACCCAUGUGCUCGUCUUAUAAGGUACUGUGACGAAAGUCACGGUACC [Mat - Sensor, turn-off var - Eli Mod - D103] (Eterna round: R97, puzzle: Sensor, turn-off variant 1) | 42.9 | 43 | – | – | – | –
30 | GUAUACAGAGGAUAUACGUGCGGCGUCAAAUGUCCAAGAGUACAUGAGGAUCACCCAUGUAGAAGGUUGAAAGC [Eternabot (L1) Solution 15] (Eterna round: R97, puzzle: Exclusion 2) | 21.7 | 26.6 | – | – | – | –
31 | GUAUGUUAUGAGGAUAUCGGUGAACAUACACAUCGAGAAGGCAUGACAUGAGGAUCACCCAUGUCAAGGAUGAG [Exclusion 6 - B - 18:c] (puzzle: Exclusion 6) | – | – | – | 71.9 | 17.7 | 22.7
32 | GUAUGUUAUGAGGAUAUCGGUGAACAUACACAUCGAGAAGGCAUGACAUGAGGAUCACCCAUGUCGAGGAUGAA [Exclusion 6 - B - 18:e] (puzzle: Exclusion 6) | – | – | – | 47.2 | 18 | 23.7
33 | GUCACAUGGACAUAGGAUCACAUGAGGAUCACCCAUGUGACUAACAAGCUUUUUGUUCGUCUUAUGUCCAUGUGAAU [Stov1/15-B1] (Eterna round: R97, puzzle: Sensor, turn-off variant 1) | 13.7 | 12 | – | – | – | –
34 | GUCACUAGAGGAUAUACAAUGGUAUAUGAUCCUAGAGACAUACAUGAGGAUCACCCAUGUAGAAGGCUAGUAUU [Exclusion 2 - 5] (Eterna round: R96, puzzle: Exclusion 2) | 52.9 | 52.5 | 53.1 | – | – | –
